One substance from US6573081 can be followed below.

The target of assay [1] is Porcine circovirus (PCV) grown in PS cell culture (porcine circovirus). Kind of assay: ELISA, PCV supernatant adsorbed to the plate at virus dilution 1:200. A general note: ELISA stands for enzyme-linked immunosorbent assay.
For assay [2] the target is unchanged. The assay can be described thus: ELISA, PCV supernatant adsorbed to the plate at virus dilution 1:400.
For assay [3] the target is unchanged. The assay can be described thus: ELISA, PCV supernatant adsorbed to the plate at virus dilution 1:800.
Assay [4] has the same target. The assay can be described thus: ELISA, PCV supernatant adsorbed to the plate at virus dilution 1:1600.
Assay [5] shares this target. The assay can be described thus: ELISA, PCV supernatant adsorbed to the plate at virus dilution 1:3200.
Assay [6] shares this target. Kind of assay: ELISA, PCV supernatant adsorbed to the plate at virus dilution 1:6400.

Turning to “Human immunoglobulin concentrate (Beriglobin P)”, the extinction is above 2 extinction in assay [1]; 1.98 extinction in assay [2]; 1.17 extinction in assay [3]; 0.726 extinction in assay [4]; 0.268 extinction in assay [5]; 0.381 extinction in assay [6].
